Assay results taken from US20080305522A1 (MITSUKAN GROUP, published 2008).

Experiments:
[1] = target: T1, polypeptide NBS (neoculin basic subunit), purified from the fruit of Curculigo latifolia (Curculigo latifolia, UniProt P19667 23-136); experiment: SDS-PAGE under reducing and non-reducing conditions, CBB staining, native neoculin
T1 construct: Subunit of native neoculin, without a sugar chain; It has 115 residues: curculin B plus one extra C-terminal Gly; also called 11 kDa subunit
T1 sequence: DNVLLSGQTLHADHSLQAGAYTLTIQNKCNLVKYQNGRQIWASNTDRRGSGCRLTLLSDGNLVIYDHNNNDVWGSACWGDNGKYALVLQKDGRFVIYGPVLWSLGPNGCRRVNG
Protocol: 2.5 μg of the purified neoculin powder obtained above in (1) to (3) was subjected to SDS-PAGE under reducing conditions or non-reducing conditions at a gel concentration of 15% and subsequently to CBB staining. […] Thus, the individual subunits were designated as neoculin acidic subunit (NAS) and neoculin basic subunit (NBS).

[2] = target: T2, recombinant NBS secreted by Aspergillus oryzae NS-NAB2 (three Gly residues before the N terminus) (Curculigo latifolia, UniProt P19667 23-136); experiment: phenyl hydrophobic column fractions, SDS-PAGE under reducing/non-reducing conditions and western blotting
T2 construct: Expressed as an alpha-amylase fusion and cleaved at Lys-Arg by a KEX2-like protease; also called 11 kDa band of recombinant neoculin
T2 sequence: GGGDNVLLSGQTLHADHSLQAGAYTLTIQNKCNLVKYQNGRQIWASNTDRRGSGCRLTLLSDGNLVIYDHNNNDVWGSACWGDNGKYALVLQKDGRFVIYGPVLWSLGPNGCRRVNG

[3] = target: the molecule itself; experiment: as above

B1: polypeptide NAS (neoculin acidic subunit), purified from the fruit of Curculigo latifolia (other)
chain: DSVLLSGQTLYAGHSLTSGSYTLTIQNNCNLVKYQHGRQIWASDTDGQGSQCRLTLRSDGNLIIYDDNNMVVWGSDCWGNNGTYALVLQQDGLFVIYGPVLWPLGLNGCRSLN
modifications: N-linked sugar chain, mannose/N-acetylglucosamine/fucose/xylose at a ratio of about 3/2/1/1; binding site 'may possibly be asparagine-81' of SEQ ID NO.2
notes: Subunit of native neoculin; It separates from NBS only under reducing conditions in SDS-PAGE; also called 13 kDa subunit
[1]
  binding result: binds

B2: recombinant NAS secreted by Aspergillus oryzae NS-NAB2 (three Gly residues before the N terminus) (other)
chain: GGGDSVLLSGQTLYAGHSLTSGSYTLTIQNNCNLVKYQHGRQIWASDTDGQGSQCRLTLRSDGNLIIYDDNNMVVWGSDCWGNNGTYALVLQQDGLFVIYGPVLWPLGLNGCRSLN
notes: Expressed as an alpha-amylase fusion and cleaved at Lys-Arg by a KEX2-like protease; Glycosylation in the koji mold is not described; also called 13 kDa band of recombinant neoculin
[2]
  binding result: binds
[3]
  binding result: binds
